Test results published in the supplement of paper PMC10567573.

B1: PTPLAD1 (parent)
chain: YSFYMLTCIDMDWKVLTWLRYTLW
B2: TPRG1 (parent)
chain: ETIQGFWLLTKIDHWNNEKERILL

Variants of: B1
Assay: protein stability index of a GFP-peptide fusion (GPS, HEK-293T) (PSI 1-6); higher = more stable
Conditions: c terminus: a fixed tail appended
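Further: lentivirally expressed fusions sorted by FACS into six bins by GFP to DsRed ratio, PSI derived from sequencing read proportions per bin multiplied by bin number.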

Protein stability index, by site and new letter:
Y1: V 4.18; D 1.5; N 2.57; A 2.82; I 3.26; M 3.57; R 1.4; C 2.62; Q 3.61
R20: P 3.84; K 3.46; T 3.6; A 2.88; I 1.69; L 1.23; V 2.13; M 2.04; F 1.28
L23: A 3.26; P 4.2; D 2.6; Q 3.84; R 4.16; H 2.58; T 4.8; S 2.99; W 2.4; F 2.46
S2: W 2.13; P 2.62; A 2.3; C 1.93; Y 2.99; H 2.1; Q 1.97; I 2.41; V 1.58; K 5.08; T 1.56; R 2.84; D 1.35
L19: M 1.93; N 3.55; S 1.22; F 3.32; K 2.22; P 3.35; W 2.31; Y 2.91; D 4.18; H 2.65; R 2.4
M11: I 2.67; F 2.15; A 3.31; C 3.43; Y 3.68; T 1.21; R 2.86; N 1.86; P 2.49; L 3.18; K 3.05; V 2.87
W18: T 3.35; I 3.65; Q 2.11; K 3.24; H 4.4; D 1.68
M5: Y 3.07; D 2.49; K 2.41; Q 2.64; P 2.17; H 2.54; S 1.4; F 3.81
L16: N 4.69; A 3.49; D 3.41; E 2.06; I 1.75; V 1.5; Q 2.4; F 3.23; W 3.38
T17: H 2.63; R 3.47; D 2.45; V 2.23; F 3.31; C 1.67; E 2.15; W 2.66; Y 1.8
T22: M 2.12; N 2.27; C 2.07; H 2.85; V 1.99; F 2.08; Y 2.26
L6: K 1.28; Y 3.68; D 2.56; T 2.85; A 2.21; P 2.45
F3: M 3.14; C 2.18; E 2.31; A 2.37; G 2.24; D 2; H 1.93; S 2.61; Y 3.36; I 3.74
K14: R 2.34; L 3.3; F 1.85; H 2.97; A 2.96; Q 2.03; W 2.45; N 3.02; P 3.03; D 2.16
D12: V 1.79; T 1.91; C 1.65; P 1.94; M 1.51; R 2.18; I 1.82; G 2.15; Y 1.95; H 1.75; A 1.63; W 1.82
T7: D 2.73; H 3.17; Q 3.88; R 2.4; Y 3.62; P 2.94; S 2.16; I 2.86
Y4: M 2.53; K 2.05; A 2.33; P 2.72; H 3.11; R 2.28; V 2.36; T 1.86; Q 1.98
V15: R 1.61; Q 2.69; T 2.91; I 4.29; K 3.92; N 2.59
D10: Q 3.51; I 2.96; R 3.09; E 2.65; N 2.6; P 1.95; F 3.86; G 4.97; A 3.85; V 3.62; T 2.76
W13: L 2.72; E 2.56; M 1.66; R 2.4; H 2.36; P 3.04; I 3.42; A 2.71; G 3.3
I9: Y 1.74; F 2.17; C 1.58; K 1.66; W 1.96; G 2.4; R 2.45; T 1.25; N 2.78; D 2.78; H 1.65
Y21: V 2.28; N 4.05; L 3.2; I 2.98; R 2.05; C 4.75; F 2.66; W 1.84
W24: Y 2.72; M 3.14; H 3.02; R 2.04; C 2.42; G 2.39; E 2.77; K 1.37; N 2.55; A 2.83
C8: A 2.9; D 2; P 1.7; N 2.97; S 2.62; K 3.09; Q 3.01; I 3.23; F 2.48; W 2.54; H 2.1; R 1.42; T 2.51; L 2.85

Variants of: B2
Assay: as above
Conditions: c terminus: a fixed tail appended

Protein stability index of substitutions, site by site:
W7: H 1.04; A 1.91; T 1.51; D 2.25; M 3.58; C 3.25; S 2.1; L 2.08; G 2.31; N 2.18; V 3.28; R 2.23; E 1.93; P 2.56; Q 1.83; K 1.86
Q4: K 2.89; Y 2.77; E 2.23; T 1.88; D 3.98; N 1.82; M 3.23; G 2.68; H 1.97; P 3.54
T2: C 1.55; L 1.67; H 1.67; E 2.51; D 1.91; Y 3.19; R 3.03; Q 2.82; P 1.61; K 2.22; N 2.16
I3: E 2.04; L 1.53; C 2.25; Q 1.99; N 1.71; R 1.88; D 1.39; S 1.28; Y 2.55; T 2.18; V 3.9; P 2.05; G 2.14
E1: N 2.13; V 4.74; S 2.85; H 2.48; Q 3.37; P 2.65; I 3.09; A 2.75; L 4.7; D 2.8; T 1.82
L9: F 3.19; D 1.58; G 2.15; E 2.2; C 2.35
F6: E 2.25; H 1.94; M 1.48; C 3.16; V 2.36; W 1.12; G 1.97; N 2.11; T 2.69; S 2.37; R 1.91; Q 1.91; D 1.72; P 1.74; Y 2.51; K 1.3
G5: K 2.04; Y 2.95; H 2.36; W 3.06; Q 1.98; C 3.97; P 2.33; I 1.69; S 2; L 1.38
L8: R 2.26; A 2.08; Q 1.53; S 1.56; G 1.61; H 2.04; Y 4.07; W 1.43; D 2.34; T 2.54; K 3.05; P 1.43; V 2.27; N 1.99; E 2.42
